According to paper PMC13495755 (Journal of the American Chemical Society, 2026):
The star is where a group is joined. 5FAM = O=C1OC2(c3ccc(O)cc3Oc3cc(O)ccc32)c2ccc(C(=O)*)cc21; Ahx = NCCCCCC(=O)O

T1: MCL-1 (172-327)
T1 construct: MCL-1 residues 172-327 as labelled; source: E. coli BL21 DE3, purified (His-trap, SUMO tag removed with His-Ulp1, reverse His-trap, Superdex 75); not shown: His6, N-terminal, cleaved; SUMO, N-terminal, cleaved
T1 chain: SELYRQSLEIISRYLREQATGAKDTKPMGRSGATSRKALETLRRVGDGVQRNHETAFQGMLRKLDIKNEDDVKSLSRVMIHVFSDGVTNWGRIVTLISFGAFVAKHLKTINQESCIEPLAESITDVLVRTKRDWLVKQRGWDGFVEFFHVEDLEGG

T2: BCL-xL (1-26 + 81-198)
T2 construct: BCL-xL, first stretch of the loop-deleted construct; BCL-xL, second stretch; Loop between the two stretches deleted; no linker; source: E. coli BL21 DE3, purified (His-trap, SUMO tag removed with His-Ulp1, reverse His-trap, Superdex 75); not shown: His6, N-terminal, cleaved; SUMO, N-terminal, cleaved
T2 chain: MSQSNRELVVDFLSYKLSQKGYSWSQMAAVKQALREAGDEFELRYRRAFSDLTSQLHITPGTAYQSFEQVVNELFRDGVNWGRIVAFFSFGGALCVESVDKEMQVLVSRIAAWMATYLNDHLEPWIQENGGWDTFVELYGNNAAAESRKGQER

T3: Kelch-like protein 20 (KLHL20) (UniProt Q9Y2M5 1-609)
T3 construct: Kelch-like protein 20 (KLHL20), E3 ubiquitin ligase adapter; The functional rows use this molecule for KLHL20 of HEK293 cells; also called E3 ligase adapter
T3 sequence (looked up): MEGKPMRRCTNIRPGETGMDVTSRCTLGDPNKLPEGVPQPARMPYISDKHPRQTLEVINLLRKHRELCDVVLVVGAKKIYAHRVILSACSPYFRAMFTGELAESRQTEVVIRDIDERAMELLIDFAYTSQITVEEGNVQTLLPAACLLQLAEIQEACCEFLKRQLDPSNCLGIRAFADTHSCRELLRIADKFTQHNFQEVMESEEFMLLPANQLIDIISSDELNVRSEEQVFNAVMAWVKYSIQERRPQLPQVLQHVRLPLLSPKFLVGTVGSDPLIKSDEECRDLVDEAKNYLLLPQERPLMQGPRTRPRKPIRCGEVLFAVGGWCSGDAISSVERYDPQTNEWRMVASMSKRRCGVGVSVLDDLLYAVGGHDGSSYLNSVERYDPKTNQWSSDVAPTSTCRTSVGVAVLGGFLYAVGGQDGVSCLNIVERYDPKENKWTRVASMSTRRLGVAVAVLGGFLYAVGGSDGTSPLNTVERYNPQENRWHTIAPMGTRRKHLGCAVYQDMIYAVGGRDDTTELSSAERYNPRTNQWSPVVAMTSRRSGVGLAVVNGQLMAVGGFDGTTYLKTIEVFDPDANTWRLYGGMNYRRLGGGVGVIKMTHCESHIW

T4: KLHL20 (303-605)
T4 sequence (Q9Y2M5 303-605, species assumed, looked up): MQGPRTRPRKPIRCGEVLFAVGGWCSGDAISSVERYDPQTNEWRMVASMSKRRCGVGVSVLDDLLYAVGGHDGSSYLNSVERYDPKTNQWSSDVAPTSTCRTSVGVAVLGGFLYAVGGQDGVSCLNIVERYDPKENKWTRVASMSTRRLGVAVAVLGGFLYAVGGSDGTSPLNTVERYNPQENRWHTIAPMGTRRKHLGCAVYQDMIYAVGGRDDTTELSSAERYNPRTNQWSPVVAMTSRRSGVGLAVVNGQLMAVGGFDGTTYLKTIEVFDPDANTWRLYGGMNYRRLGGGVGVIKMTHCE


Tests used:
BCL-xL = BCL-xL (UniProt Q07817); assay: fluorescence polarisation; direct FA titration of the labeled BID peptide with BCL-xL or MCL-1
MCL-1 = MCL-1 (UniProt Q07820); assay: as above
MCL-1 (172-327) = biological target: T1, MCL-1 (172-327); assay: fluorescence polarisation; competitive fluorescence anisotropy; target protein (BCL-xL or MCL-1) fixed at 150 nM, FAM-BID tracer fixed at 25 nM, competitor protein titrated in; FA buffer 20 mM Tris, 150 mM NaCl pH 7.4, 1 mM DTT, 0.01% triton x100 (legends: 20 mM Tris-HCl, 150 mM NaCl, pH 7.5); triplicate; logistic fit; conditions: both partners purified
BCL-xL (1-26 + 81-198) = biological target: T2, BCL-xL (1-26 + 81-198); assay: as above; conditions: both partners purified
[1] = biological target: T3, Kelch-like protein 20 (KLHL20); assay: fluorescence polarisation; direct FA titration of the tracer with KLHL20; conditions: both partners purified
KLHL20 (303-605) = biological target: T4, KLHL20 (303-605); assay: fluorescence polarisation; direct titration of the FAM-labelled tracer peptide with the target protein; FA buffer 20 mM Tris, 150 mM NaCl pH 7.4, 1 mM DTT, 0.01% triton x100

MCL-1, sequence (Q07820 whole entry): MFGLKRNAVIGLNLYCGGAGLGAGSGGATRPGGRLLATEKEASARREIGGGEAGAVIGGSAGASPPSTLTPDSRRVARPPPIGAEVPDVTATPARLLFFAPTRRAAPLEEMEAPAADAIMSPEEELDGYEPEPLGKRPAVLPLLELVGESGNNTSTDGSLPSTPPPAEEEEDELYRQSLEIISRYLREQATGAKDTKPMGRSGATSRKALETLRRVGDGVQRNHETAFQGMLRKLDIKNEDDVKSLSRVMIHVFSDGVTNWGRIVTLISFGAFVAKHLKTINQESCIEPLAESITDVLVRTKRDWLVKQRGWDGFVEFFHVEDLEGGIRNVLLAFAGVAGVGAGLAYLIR

Molecule | IC50 (MCL-1 (172-327)) | IC50 (BCL-xL (1-26 + 81-198)) | further results
BID, natural effector peptide, labeled competitor peptide | – | – | Kd (BCL-xL): 0.071 µM; Kd (MCL-1): 0.0215 µM
Sc-apCC-2-BCL-xL-12 (designed binder) SHMGPELERLEERRRELERELEELDREIAELEWTIKSDPRKKELIVKLRQLFGRRLRLMGDIFDLDVQIRRLREG | 0.27 ± 0.02 µM | 0.212 ± 0.018 µM | –
{FAM-Ahx}-LGLPDLVAK-NH2 [tracer of the competitive FA-binding assay for KLHL20] | – | – | Kd [1]: 12 µM
Sc-apCC-2-BCL-xL-11 (designed binder, de novo helix-loop-helix design against BCL-xL (Strategy 3, pAE); source: E. coli BL21 DE3, purified (His-trap, TEV cleavage, reverse His-trap, Superdex 75); not shown: His6, N-terminal, cleaved) SHMGPELAALQAERDALEARLAELDREIAALEWRIPSDPRKKQLIGELLRLFGDRFDLERRIAELDAKIEALKNG | 0.5 ± 0.15 µM | 0.197 ± 0.01 µM | –
{5FAM-Ahx}-LGLPDLVAK-NH2 (SMILES CC(C)C[C@H](NC(=O)CCCCCNC(=O)c1ccc2c(c1)C(=O)OC21c2ccc(O)cc2Oc2cc(O)ccc21)C(=O)NCC(=O)N[C@@H](CC(C)C)C(=O)N1CCC[C@H]1C(=O)N[C@@H](CC(=O)O)C(=O)N[C@@H](CC(C)C)C(=O)N[C@H](C(=O)N[C@@H](C)C(=O)N[C@@H](CCCCN)C(N)=O)C(C)C) [FAM-DAPK1] | – | – | Kd (KLHL20 (303-605)): 12.2 µM
